# From PMC5622040 (Nature Communications, 2017)
# B1: Syrian hamster PrP23-144 (domain or fragment)
# chain: KKRPKPGGWNTGGSRYPGQGSPGGNRYPPQGGGTWGQPHGGGWGQPHGGGWGQPHGGGWGQPHGGGWGQGGGTHNQWNKPSKPKTNMKHMAGAAAAGAVVGGLGGYMLGSAMSRPMMHFGND
# Target: the molecule itself
# Experiment: solid-state NMR of amyloid fibrils
protein,measurement,value
B1,binding result,binds
